Results taken from the Immune Epitope Database (IEDB).

Experiments:
HLA-A*02:01 [1] = test: IEDB peptide-MHC binding, purified MHC/competitive/radioactivity; filed as Kd, often an IC50 or EC50 that approximates it; ≥ and ≤ were set here for values at or beyond the usual limits of such assays
HLA-A*02:02 = test: as above
HLA-A*02:03 = test: as above
HLA-A*02:06 = test: as above
HLA-A*68:02 [2] = test: as above
HLA-A*02:01 [3] = test: IEDB peptide-MHC binding, purified MHC/competitive/fluorescence; ≥ and ≤ were set here for values at or beyond the usual limits of such assays; details: source organism: Zaire ebolavirus
HLA-B*15:01 [4] = test: as above; details: source organism: Zaire ebolavirus
HLA-A*24:02 = test: as above
HLA-B*15:03 = test: IEDB peptide-MHC binding, purified MHC/competitive/radioactivity; filed as Kd, often an IC50 or EC50 that approximates it; ≥ and ≤ were set here for values at or beyond the usual limits of such assays
HLA-B*58:01 = test: as above
HLA-A*30:01 = test: as above; details: source organism: Dengue virus 2 Jamaica/1409/1983
HLA-B*07:02 [5] = test: as above
HLA-B*35:01 = test: as above
HLA-B*51:01 = test: as above
HLA-B*53:01 = test: as above
HLA-B*54:01 = test: as above
HLA-A*03:01 = test: IEDB peptide-MHC binding, purified MHC/competitive/fluorescence; filed as Kd, often an IC50 or EC50 that approximates it; ≥ and ≤ were set here for values at or beyond the usual limits of such assays
HLA-A*11:01 = test: IEDB peptide-MHC binding, purified MHC/competitive/fluorescence; ≥ and ≤ were set here for values at or beyond the usual limits of such assays
HLA-B*07:02 [6] = test: as above
HLA-A*68:02 [7] = test: IEDB peptide-MHC binding, purified MHC/competitive/fluorescence; filed as Kd, often an IC50 or EC50 that approximates it; ≥ and ≤ were set here for values at or beyond the usual limits of such assays; details: source organism: Entamoeba dispar SAW760
HLA-A*24:03 = test: as above; details: source organism: Influenza A virus (A/Kayano/57(H2N2))
HLA-B*15:01 [8] = test: IEDB peptide-MHC binding, purified MHC/competitive/radioactivity; filed as Kd, often an IC50 or EC50 that approximates it; ≥ and ≤ were set here for values at or beyond the usual limits of such assays; details: source organism: Vaccinia virus WR
HLA-B*15:01 [9] = test: IEDB peptide-MHC binding, purified MHC/competitive/fluorescence; filed as Kd, often an IC50 or EC50 that approximates it; ≥ and ≤ were set here for values at or beyond the usual limits of such assays; details: source organism: Escherichia coli B171
HLA-A*02:01 [10] = test: IEDB peptide-MHC binding, purified MHC/direct/fluorescence; filed as Kd, often an IC50 or EC50 that approximates it; ≥ and ≤ were set here for values at or beyond the usual limits of such assays; details: source organism: Marburg virus - Musoke, Kenya, 1980
HLA-A*02:12 = test: as above; details: source organism: Ravn virus - Ravn, Kenya, 1987
HLA-A*69:01 = test: as above; details: source organism: Marburg virus - Musoke, Kenya, 1980
[11] = source organism: Lassa virus Josiah
[12] = source organism: Zaire ebolavirus
[13] = source organism: Vaccinia virus WR
[14] = source organism: SARS coronavirus Tor2
[15] = source organism: Sudan ebolavirus
[16] = source organism: Lymphocytic choriomeningitis virus (strain WE)
[17] = source organism: Triticum aestivum
[18] = source organism: Human immunodeficiency virus type 1 BH10

IMTSYQYLI was tested, and the Kd (HLA-A*02:01 [1]; [11]) was 33.3 nM, the Kd (HLA-A*02:02; [11]) was 210 nM and the Kd (HLA-A*02:03; [11]) was 78.1 nM. For the same sequence, the Kd (HLA-A*02:06; [11]) was 597 nM and the Kd (HLA-A*68:02 [2]; [11]) was 698 nM.

Work on IQVHAEQGL yielded an IC50 (HLA-A*02:01 [3]) of at least 105000 nM and an IC50 (HLA-B*15:01 [4]) of 33000 nM.

IRGFPRCRY showed an IC50 (HLA-A*24:02; [12]) of 66000 nM and an IC50 (HLA-B*15:01 [4]) of at least 242000 nM.

ISSLGILVF showed a Kd (HLA-B*15:03; [13]) of 81.7 nM.

ISSTPLAENT was tested, and the Kd (HLA-B*58:01; source organism: Dengue virus 4 Dominica/814669/1981) was 951 nM.

Sequence KARSTPFNM has a Kd (HLA-A*30:01) of 169 nM and a Kd (HLA-B*58:01; source organism: Dengue virus 2 Jamaica/1409/1983) of 194 nM.

With KHAQRIETW the Kd (HLA-B*58:01; source organism: Dengue virus 2 Peru/IQT2913/1996) was 482 nM.

KKMTCGQPL gave a Kd (HLA-B*15:03; [13]) of 1.51 nM.

With KPASRELSV the Kd (HLA-B*07:02 [5]; [14]) was 5.7 nM, the Kd (HLA-B*35:01; [14]) was 11800 nM and the Kd (HLA-B*51:01; [14]) was 631 nM. For the same sequence, the Kd (HLA-B*53:01; [14]) was 14400 nM and the Kd (HLA-B*54:01; [14]) was 9540 nM.

KPVIVPDIKL gave a Kd (HLA-B*07:02 [5]; [13]) of 236 nM, a Kd (HLA-B*35:01; [13]) of 8870 nM and a Kd (HLA-B*51:01; [13]) of at least 69600 nM. The Kd (HLA-B*53:01; [13]) was 5200 nM and the Kd (HLA-B*54:01; [13]) was 3810 nM.

KTYYHHTGY was tested, and the Kd (HLA-A*03:01; source organism: Francisella tularensis subsp. holarctica OSU18) was 5.2 nM.

For LDAVIRANN, the IC50 (HLA-A*11:01; [13]) was at least 169000 nM.

Work on LPNPAFIHI yielded an IC50 (HLA-B*07:02 [6]; source organism: Variola virus) of 11000 nM.

In the case of LPRDKFRKS, the IC50 (HLA-B*07:02 [6]; [15]) is reported as 16900 nM.

With LRKRSRRQT the IC50 (HLA-B*07:02 [6]; [15]) was 18800 nM.

With MPEWVNFKF the Kd (HLA-B*07:02 [5]; [16]) was 2210 nM, the Kd (HLA-B*35:01; [16]) was 8.71 nM and the Kd (HLA-B*51:01; [16]) was at least 20400 nM. It also gave a Kd (HLA-B*53:01; [16]) of 20 nM and a Kd (HLA-B*54:01; [16]) of 1000 nM.

Sequence MYIFLPVML has a Kd (HLA-A*68:02 [7]) of 94.1 nM.

NPNCLEWLRA showed a Kd (HLA-B*07:02 [5]; [13]) of 17400 nM, a Kd (HLA-B*35:01; [13]) of 1160 nM and a Kd (HLA-B*51:01; [13]) of at least 69600 nM. It also gave a Kd (HLA-B*53:01; [13]) of 2050 nM and a Kd (HLA-B*54:01; [13]) of 20.2 nM.

For NYPVAKGSY, the Kd (HLA-A*24:03) was at least 20000 nM.

Sequence PPLISILMI has a Kd (HLA-B*07:02 [5]; [13]) of 7300 nM, a Kd (HLA-B*35:01; [13]) of 19300 nM and a Kd (HLA-B*51:01; [13]) of 91.2 nM. The Kd (HLA-B*53:01; [13]) was 818 nM and the Kd (HLA-B*54:01; [13]) was 8780 nM.

For QLYSTLLSF, the Kd (HLA-B*15:01 [8]) was 3 nM and the Kd (HLA-B*15:03; [13]) was 0.565 nM.

QPFLQPQL gave a Kd (HLA-B*07:02 [5]; [17]) of 349 nM, a Kd (HLA-B*35:01; [17]) of at least 87800 nM and a Kd (HLA-B*51:01; [17]) of 1110 nM. The Kd (HLA-B*53:01; [17]) was at least 87700 nM and the Kd (HLA-B*54:01; [17]) was 6350 nM.

RAAVEDEEF was tested, and the Kd (HLA-B*58:01; source organism: Dengue virus 3 Singapore/8120/1995) was 865 nM.

RGPGRAFVTI showed a Kd (HLA-A*02:01 [1]; [18]) of 4600 nM, a Kd (HLA-A*02:02; [18]) of at least 70000 nM and a Kd (HLA-A*02:03; [18]) of 12200 nM. It also gave a Kd (HLA-A*02:06; [18]) of 5790 nM and a Kd (HLA-A*68:02 [2]; [18]) of at least 69800 nM.

For RPRVTKQYIV, the Kd (HLA-B*07:02 [5]; [13]) was 4.55 nM, the Kd (HLA-B*35:01; [13]) was 11500 nM and the Kd (HLA-B*51:01; [13]) was 14900 nM. It also gave a Kd (HLA-B*53:01; [13]) of 4450 nM and a Kd (HLA-B*54:01; [13]) of 106 nM.

For RQVVDFFKF, the Kd (HLA-B*15:03; [13]) was 0.344 nM.

RSSRGVQFL was tested, and the Kd (HLA-B*15:03; source organism: Vaccinia virus Copenhagen) was 123 nM.

RSVSGDLIL was tested, and the Kd (HLA-B*58:01; source organism: Dengue virus 1 Brazil/97-11/1997) was 9.84 nM.

For RVDEIILFK, the Kd (HLA-A*03:01; source organism: Bacillus cereus G9241) was 156 nM.

Work on SSVSPPNVL yielded a Kd (HLA-B*15:03; [13]) of 18.3 nM.

With TESDMDYHK the IC50 (HLA-A*11:01; [12]) was at least 174000 nM.

Sequence TFLQSPPIR has an IC50 (HLA-A*11:01; [15]) of at least 119000 nM and an IC50 (HLA-A*24:02; [15]) of 38800 nM.

Work on TKVMFVIRF yielded a Kd (HLA-B*15:03; [13]) of 30.8 nM.

Sequence TLYDRYLIH has a Kd (HLA-A*03:01; source organism: Coxiella burnetii RSA 331) of 6.9 nM.

In the case of VEVEPGSSF, the Kd (HLA-B*15:03; [13]) is reported as 1.66 nM.

Work on VMAGVFARY yielded a Kd (HLA-A*03:01; source organism: Escherichia coli B171) of 21.4 nM and a Kd (HLA-B*15:01 [9]) of 61.7 nM.

Sequence YLPEDSDIL has a Kd (HLA-A*02:01 [10]) of 525 nM, a Kd (HLA-A*02:12) of 6 nM and a Kd (HLA-A*69:01) of at least 20000 nM.
